Legend:
[1] = biological target: B/Memphis/13/2003 FluPol PA-NE332-333AA (PB2, PA mutant, PB1-luc2); conditions: parent: est. 100; read off a plot
[2] = biological target: B/Memphis/13/2003 FluPol PA-NENF332-335AAAA (PB2, PA mutant, PB1-luc2); conditions: parent: est. 100; read off a plot
[3] = biological target: B/Memphis/13/2003 FluPol PA-NY360-361AA (PB2, PA mutant, PB1-luc2); conditions: parent: est. 100; read off a plot
[4] = biological target: FluPolB (influenza B/Memphis/13/2003 polymerase heterotrimer) (influenza B/Memphis/13/2003) (UniProt Q5V8Z9); assay: mass photometry

“B/Memphis/13/2003 FluPol wild type (PB2, PA, PB1-luc1) for the split luciferase assays (from UniProt Q5V8Z9;Q5V8Y6;Q5V8X3) PA:N332A; PA:E333A” was tested. Which percent of parent [1] did it give?
The percent of parent was 33 % FluPol-WT.

For “B/Memphis/13/2003 FluPol wild type (PB2, PA, PB1-luc1) for the split luciferase assays (from UniProt Q5V8Z9;Q5V8Y6;Q5V8X3) PA:N332A; PA:E333A; PA:N334A; PA:F335A”, which percent of parent [2] is on record?
The percent of parent was 9 % FluPol-WT.

With “B/Memphis/13/2003 FluPol wild type (PB2, PA, PB1-luc1) for the split luciferase assays (from UniProt Q5V8Z9;Q5V8Y6;Q5V8X3) PA:N360A; PA:Y361A” as the substance, how does the percent of parent [3] read?
Its percent of parent is 6 % FluPol-WT.

How did the percent dimers [4] turn out when “FluPolB (influenza B/Memphis/13/2003 polymerase heterotrimer) (from UniProt Q5V8Z9;Q5V8Y6;Q5V8X3) (complex)” was run?
Its percent dimers is 14%.
